From patent publication US20080213836

T1: Boc-Glu(OBzl)-Ala-Arg-MCA
T1 chain: EAR

T2: Z-Phe-Arg-MCA
T2 chain: FR

T3: Pro-Phe-Arg-MCA
T3 chain: PFR

T4: Gly-Asp-Asp-Asp-Asp-Lys-β-naphthylamide
T4 chain: GDDDDK


Columns and labels:
[1] = molecular target: T1, Boc-Glu(OBzl)-Ala-Arg-MCA
Z-Phe-Arg-MCA = molecular target: T2, Z-Phe-Arg-MCA
Pro-Phe-Arg-MCA = molecular target: T3, Pro-Phe-Arg-MCA
[2] = molecular target: T4, Gly-Asp-Asp-Asp-Asp-Lys-β-naphthylamide
[3] = molecular target: recombinant fusion protein of Medaka trypsinogen

Row | Protein | enzyme activity against wild-type [1] | enzyme activity against wild-type (Z-Phe-Arg-MCA) | enzyme activity against wild-type (Pro-Phe-Arg-MCA) | enzyme activity against wild-type [2] | conversion of trypsinogen to active enzyme [3]
1 | Medaka EP-1 serine protease domain mutant K63A (protein) VVGGVNAEKGAWPWMVSLHWRGRHGCGASLIGRDWLLTAAHCVYGANTHLQYWSAVLGLHAQSSMNSQEVQIRQVDRIIINKNYNRRTKEADIAMMHLQQPVNFTEWVLPVCLASEDQHFPAGRRCFIAGWGRDAEGGSLPDILQEAEVPLVDQDECQRLLPEYTFTSSMLCAGYPEGGVDSCQGDSGGPLMCLEDARWTLIGVTSFGVGCGRPERPGAYARVSAFTSWIAETRRSSFSDLD | The same held true for all the other mutants except for F144A | The same held true for all the other mutants except for F144A | The same held true for all the other mutants except for F144A | The same held true for all the other mutants except for F144A | A total of 12 mutants could convert the recombinant Medaka trypsinogen to its active enzyme (data not shown)
2 | Medaka EP-1 serine protease domain mutant E173K (protein) VVGGVNAEKGAWPWMVSLHWRGRHGCGASLIGRDWLLTAAHCVYGKNTHLQYWSAVLGLHAQSSMNSQEVQIRQVDRIIINKNYNRRTKEADIAMMHLQQPVNFTEWVLPVCLASEDQHFPAGRRCFIAGWGRDAEGGSLPDILQEAEVPLVDQDKCQRLLPEYTFTSSMLCAGYPEGGVDSCQGDSGGPLMCLEDARWTLIGVTSFGVGCGRPERPGAYARVSAFTSWIAETRRSSFSDLD | consistently resulted in reduced enzyme activity for synthetic peptide substrates | consistently resulted in reduced enzyme activity for synthetic peptide substrates | consistently resulted in reduced enzyme activity for synthetic peptide substrates | consistently resulted in reduced enzyme activity for synthetic peptide substrates | A total of 12 mutants could convert the recombinant Medaka trypsinogen to its active enzyme (data not shown)
3 | Medaka EP-1 serine protease domain mutant T105A (protein) VVGGVNAEKGAWPWMVSLHWRGRHGCGASLIGRDWLLTAAHCVYGKNTHLQYWSAVLGLHAQSSMNSQEVQIRQVDRIIINKNYNRRAKEADIAMMHLQQPVNFTEWVLPVCLASEDQHFPAGRRCFIAGWGRDAEGGSLPDILQEAEVPLVDQDECQRLLPEYTFTSSMLCAGYPEGGVDSCQGDSGGPLMCLEDARWTLIGVTSFGVGCGRPERPGAYARVSAFTSWIAETRRSSFSDLD | The same held true for all the other mutants except for F144A | The same held true for all the other mutants except for F144A | The same held true for all the other mutants except for F144A | The same held true for all the other mutants except for F144A | A total of 12 mutants could convert the recombinant Medaka trypsinogen to its active enzyme (data not shown)
4 | Medaka EP-1 serine protease domain mutant T105R (protein) VVGGVNAEKGAWPWMVSLHWRGRHGCGASLIGRDWLLTAAHCVYGKNTHLQYWSAVLGLHAQSSMNSQEVQIRQVDRIIINKNYNRRRKEADIAMMHLQQPVNFTEWVLPVCLASEDQHFPAGRRCFIAGWGRDAEGGSLPDILQEAEVPLVDQDECQRLLPEYTFTSSMLCAGYPEGGVDSCQGDSGGPLMCLEDARWTLIGVTSFGVGCGRPERPGAYARVSAFTSWIAETRRSSFSDLD | The same held true for all the other mutants except for F144A | The same held true for all the other mutants except for F144A | The same held true for all the other mutants except for F144A | The same held true for all the other mutants except for F144A | A total of 12 mutants could convert the recombinant Medaka trypsinogen to its active enzyme (data not shown)
5 | Medaka EP-1 serine protease domain mutant K63E (protein) VVGGVNAEKGAWPWMVSLHWRGRHGCGASLIGRDWLLTAAHCVYGENTHLQYWSAVLGLHAQSSMNSQEVQIRQVDRIIINKNYNRRTKEADIAMMHLQQPVNFTEWVLPVCLASEDQHFPAGRRCFIAGWGRDAEGGSLPDILQEAEVPLVDQDECQRLLPEYTFTSSMLCAGYPEGGVDSCQGDSGGPLMCLEDARWTLIGVTSFGVGCGRPERPGAYARVSAFTSWIAETRRSSFSDLD | The same held true for all the other mutants except for F144A | The same held true for all the other mutants except for F144A | The same held true for all the other mutants except for F144A | The same held true for all the other mutants except for F144A | A total of 12 mutants could convert the recombinant Medaka trypsinogen to its active enzyme (data not shown)
6 | Medaka EP-1 serine protease domain mutant F144S (protein) VVGGVNAEKGAWPWMVSLHWRGRHGCGASLIGRDWLLTAAHCVYGKNTHLQYWSAVLGLHAQSSMNSQEVQIRQVDRIIINKNYNRRTKEADIAMMHLQQPVNFTEWVLPVCLASEDQHFPAGRRCSIAGWGRDAEGGSLPDILQEAEVPLVDQDECQRLLPEYTFTSSMLCAGYPEGGVDSCQGDSGGPLMCLEDARWTLIGVTSFGVGCGRPERPGAYARVSAFTSWIAETRRSSFSDLD | consistently resulted in reduced enzyme activity for synthetic peptide substrates | consistently resulted in reduced enzyme activity for synthetic peptide substrates | consistently resulted in reduced enzyme activity for synthetic peptide substrates | consistently resulted in reduced enzyme activity for synthetic peptide substrates | A total of 12 mutants could convert the recombinant Medaka trypsinogen to its active enzyme (data not shown)
7 | Medaka EP-1 serine protease domain mutant F144A (protein) VVGGVNAEKGAWPWMVSLHWRGRHGCGASLIGRDWLLTAAHCVYGKNTHLQYWSAVLGLHAQSSMNSQEVQIRQVDRIIINKNYNRRTKEADIAMMHLQQPVNFTEWVLPVCLASEDQHFPAGRRCAIAGWGRDAEGGSLPDILQEAEVPLVDQDECQRLLPEYTFTSSMLCAGYPEGGVDSCQGDSGGPLMCLEDARWTLIGVTSFGVGCGRPERPGAYARVSAFTSWIAETRRSSFSDLD | hydrolyzed the GD4K-βNA as well as the three MCA-containing substrates at an elevated rate when compared with the wild-type enzyme | hydrolyzed the GD4K-βNA as well as the three MCA-containing substrates at an elevated rate when compared with the wild-type enzyme | hydrolyzed the GD4K-βNA as well as the three MCA-containing substrates at an elevated rate when compared with the wild-type enzyme | hydrolyzed the GD4K-βNA as well as the three MCA-containing substrates at an elevated rate when compared with the wild-type enzyme | A total of 12 mutants could convert the recombinant Medaka trypsinogen to its active enzyme (data not shown)
8 | Medaka EP-1 serine protease domain mutant P193A (protein) VVGGVNAEKGAWPWMVSLHWRGRHGCGASLIGRDWLLTAAHCVYGKNTHLQYWSAVLGLHAQSSMNSQEVQIRQVDRIIINKNYNRRTKEADIAMMHLQQPVNFTEWVLPVCLASEDQHFPAGRRCFIAGWGRDAEGGSLPDILQEAEVPLVDQDECQRLLPEYTFTSSMLCAGYAEGGVDSCQGDSGGPLMCLEDARWTLIGVTSFGVGCGRPERPGAYARVSAFTSWIAETRRSSFSDLD | The same held true for all the other mutants except for F144A | The same held true for all the other mutants except for F144A | The same held true for all the other mutants except for F144A | The same held true for all the other mutants except for F144A | A total of 12 mutants could convert the recombinant Medaka trypsinogen to its active enzyme (data not shown)
